Measured values from patent US20200223885A1 (TOSOH, published 2020).

How the values were obtained:
[1] = molecular target: T1, IgG1 (manufactured by Sigma-Aldrich); assay: SPR (Biacore T100), Fc-binding protein amine-coupled to CM5, IgG1 as analyte
T1 construct: Analyte in the SPR assay, diluted in HBS-EP; also called IgG1 antibody
Experimental: (7) IgG1-binding ability of each Fc-binding protein collected as the elution fraction in (6) was evaluated using the surface plasmon resonance method. Upon measurement of the binding ability using the surface plasmon resonance method, Biacore T100 (manufactured by GE Healthcare) was used as a measurement system, Sensor Chip CM5 (manufactured by GE Healthcare) was used as a sensor chip, and Biacore T100 Evaluation Software (manufactured by GE Healthcare) was used as analysis software.
(8) A solution prepared by diluting IgG1 (manufactured by Sigma-Aldrich) with HBS-EP (manufactured by GE Healthcare) was supplied to a sensor chip on which each Fc-binding protein was separately immobilized using an Amine Coupling Kit (manufactured by GE Healthcare), thereby obtaining a sensorgram. Curve fitting was performed based on the sensorgram so as to calculate IgG1-binding ability.

[2] = molecular target: T2, monoclonal antibody (RITUXAN, manufactured by Zenyaku Kogyo Co., Ltd.); assay: affinity chromatography on the FcR9_F-immobilized gel column; equilibration 20 mM acetate, 50 mM NaCl, pH 5.0; elution by pH gradient to 10 mM glycine-HCl pH 3.0; 0.6 mL/min; A280
T2 construct: That tie rests on the trade name; also called rituximab
T2 sequence (heavy, as listed by the source, chain 1 of 2): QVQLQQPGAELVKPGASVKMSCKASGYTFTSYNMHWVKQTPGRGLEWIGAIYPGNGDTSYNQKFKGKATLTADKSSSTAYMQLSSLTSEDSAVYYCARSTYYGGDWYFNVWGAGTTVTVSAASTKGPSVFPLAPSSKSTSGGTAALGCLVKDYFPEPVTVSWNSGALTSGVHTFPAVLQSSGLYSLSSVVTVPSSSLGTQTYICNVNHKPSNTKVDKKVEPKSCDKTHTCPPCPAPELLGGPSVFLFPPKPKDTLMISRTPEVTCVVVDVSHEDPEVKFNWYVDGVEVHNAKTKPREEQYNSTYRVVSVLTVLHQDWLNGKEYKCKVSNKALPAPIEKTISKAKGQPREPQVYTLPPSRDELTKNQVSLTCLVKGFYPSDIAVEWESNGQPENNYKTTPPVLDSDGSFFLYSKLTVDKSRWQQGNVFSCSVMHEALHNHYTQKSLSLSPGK
T2 sequence (light, as listed by the source, chain 2 of 2): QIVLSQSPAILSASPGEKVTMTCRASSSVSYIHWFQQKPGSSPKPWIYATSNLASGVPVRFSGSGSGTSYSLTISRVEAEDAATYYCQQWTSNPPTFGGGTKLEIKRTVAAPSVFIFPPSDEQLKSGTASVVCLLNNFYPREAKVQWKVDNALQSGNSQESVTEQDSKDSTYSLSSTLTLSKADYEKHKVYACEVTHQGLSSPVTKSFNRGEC
Experimental: (4) Five microliters of a monoclonal antibody (RITUXAN, manufactured by Zenyaku Kogyo Co., Ltd.), which was diluted with phosphate buffered saline (PBS) (pH 7.4) to yield a concentration of 1.0 mg/mL, was added at a flow rate of 0.6 mL/min.
(5) Washing was performed with the equilibration buffer for 2 minutes while the flow rate was maintained at 0.6 mL/min. Subsequently, a monoclonal antibody adsorbed was eluted with a pH gradient of 10 mM glycine-HCl buffer (pH 3.0) (i.e., a gradient in which 10 mM glycine-HCl buffer (pH 3.0) accounts for 100% in 28 minutes).

B1: Fc-binding protein FcR9 (human FcγRIIIa amino acid substitution product) (receptor)
chain: KIEEAMGMRTEDLPKAEVILEPQWNRVLEKDSVTLKCRGAYSPEDNSTQWFHNESLISSQASSYLIDAATVDDSGEYRCQTSLSTLSDPVQLEVHIGWLLLQAPRWEFKEGDPIHLRCHSWKNTALHKVTYLQNGKGRKYFHHNSDFYIPKATLKDSGSYSCRGLVGSKNVSSETVNITITQGGHHHHHH
- Kd [1]: 77.3 nM
- koff [1]: 0.0313 s⁻¹
- kon [1]: 405000 M⁻¹ s⁻¹

B2: FcR9_F_Cys (FcR9_F with a cysteine tag added) (receptor)
chain: MGMRTEDLPKAEVILEPQWNRVLEKDSVTLKCRGAYSPEDNSTQWFHNESLISSQASSYLIDAATVDDSGEYRCQTSLSTLSDPVQLEVHIGWLLLQAPRWEFKEGDPIHLRCHSWKNTALHKVTYLQNGKGRKYFHHNSDFYIPKATLKDSGSYSCRGLFGSKNVSSETVNITITQGCRNDTCG
notes: also called FcR9_F-immobilized gel; FcR9_F column
- binding result [2]: binds
